Results as given in US20070231333A1, “ANTI-5T4 ANTIBODIES AND USES THEREOF” (Wyeth, priority 2006, published 2007).

Assays:
human 5T4 antigen [1] = target: T1, human 5T4 antigen (Homo sapiens, UniProt Q13641); assay: BIACORE analysis of antibody binding to human 5T4 antigen immobilized on a CM5 chip; settings: chimeric and humanized antibodies, Table 12
T1 sequence (Q13641 32-420): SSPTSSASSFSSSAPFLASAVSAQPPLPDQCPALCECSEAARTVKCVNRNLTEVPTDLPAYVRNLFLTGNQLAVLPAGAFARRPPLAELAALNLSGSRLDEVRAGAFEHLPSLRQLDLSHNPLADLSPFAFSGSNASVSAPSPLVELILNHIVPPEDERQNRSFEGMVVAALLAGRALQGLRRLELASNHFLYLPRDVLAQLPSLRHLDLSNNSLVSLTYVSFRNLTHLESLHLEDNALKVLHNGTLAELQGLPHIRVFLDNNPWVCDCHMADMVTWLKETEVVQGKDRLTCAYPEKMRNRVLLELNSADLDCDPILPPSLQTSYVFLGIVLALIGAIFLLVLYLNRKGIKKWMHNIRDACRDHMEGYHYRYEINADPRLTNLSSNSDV
Method: To assess the binding specificity and affinity of the A1, A2, and A3 antibodies, BIACORE® analysis was performed using human 5T4 antigen immobilized on a CM5 chip. BIACORE® technology utilizes changes in the refractive index at the surface layer upon binding of the antibody to the 5T4 antigen immobilized on the layer. Binding is detected by surface plasmon resonance (SPR) of laser light refracting from the surface. Analysis of the signal kinetics on rate and off rate allows discrimination between non-specific and specific interactions. The H8 anti-5T4 antibody was used as a control. H8 is a hybridoma-generated monoclonal mouse IgG1 antibody described in PCT International Publication No. WO 98/55607 and in Forsberg et al. (1997) J. Biol. Chem. 272(19):[…].
To assess the binding specificity and affinity of the chimeric and humanized H8, A1, A2, and A3 antibodies, BIACORE® analysis was performed using human 5T4 antigen immobilized on a CM5 chip. See Example 2.

human 5T4 antigen [2] = target: T1, human 5T4 antigen; assay: BIACORE competition assay: second antibody after saturation with first antibody; format: binding
Method: Epitope mapping of the H8, A1, A2, and A3 antibodies was also performed using BIACORE® using a CM5 chip with bound human 5T4 antigen. The chip was saturated with H8, A1, A2, or A3 antibody, and a first response was measured. The chip was then saturated with a second antibody from among the H8, A1, A2, and A3 antibodies, and a second response was measured. For multiple experiments, the chip was regenerated by dissociation of the bound antibodies in 10 mM glycine, pH 1.5, followed by a buffer wash. The percentages shown are the response units measured upon binding by a second antibody directly to the CM5 chip divided by the response units measured upon binding of the second antibody to a CM5 chip saturated with a first antibody.
The epitopes bound by the H8 and A3 antibodies are sterically close to each other such that the rate of association with antigen is decreased when binding of H8 is assayed in the presence of A3, and vice versa. Similar results were obtained using the chimeric and humanized H8, A1, A2, and A3 antibodies, which were prepared as described in Example 7 herein below.

[3] = target: T2, rat 5T4 ectodomain/Fc fusion protein (Rattus norvegicus, UniProt Q5PQV5); assay: Cross-species reactivity ELISA, 5T4 ectodomain/Fc fusion proteins; format: binding; set-up: key: +: binding; −: no binding; +/−: partial binding
T2 construct: rat 5T4 (amino acids 1-361); human IgG1 Fc; made in house; host or cells: COS-1 cells (transient transfection)
T2 sequence (Q5PQV5 32-361): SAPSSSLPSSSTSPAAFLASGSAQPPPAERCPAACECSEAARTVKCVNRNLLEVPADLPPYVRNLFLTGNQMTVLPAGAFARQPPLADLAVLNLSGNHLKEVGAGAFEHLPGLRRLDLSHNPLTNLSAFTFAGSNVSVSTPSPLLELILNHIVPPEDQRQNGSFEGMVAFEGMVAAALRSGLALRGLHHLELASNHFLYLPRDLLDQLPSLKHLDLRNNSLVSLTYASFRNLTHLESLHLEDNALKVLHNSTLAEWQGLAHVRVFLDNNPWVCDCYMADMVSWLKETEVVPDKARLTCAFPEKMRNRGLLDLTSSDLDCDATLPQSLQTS
Method: (§1) The cross-species reactivity of anti-5T4 antibodies disclosed herein was assayed to determine relevant species for in vivo efficacy studies and toxicology analysis. Correlation of binding activity and relatedness of the different 5T4 ectodomains was also used to further describe the epitope bound by each antibody. Binding assays were performed using 5T4 ectodomains from various species fused to human IgG1 Fc. To assay binding of anti-5T4 antibodies, 5T4 ectodomain/Fc fusion proteins were transiently transfected into COS-1 cells, and ELISA assays were performed. Non-relevant human IgG4 and IgG1 antibodies were used as controls.

[4] = target: T3, mouse 5T4 ectodomain/Fc fusion protein (Mus musculus, UniProt Q9Z0L0); assay: as above; format: binding; set-up: key: +: binding; −: no binding; +/−: partial binding
T3 construct: prepared using mouse 5T4 (amino acids 1-361); human IgG1 Fc; made in house; host or cells: COS-1 cells (transient transfection)
T3 sequence (Q9Z0L0 32-361): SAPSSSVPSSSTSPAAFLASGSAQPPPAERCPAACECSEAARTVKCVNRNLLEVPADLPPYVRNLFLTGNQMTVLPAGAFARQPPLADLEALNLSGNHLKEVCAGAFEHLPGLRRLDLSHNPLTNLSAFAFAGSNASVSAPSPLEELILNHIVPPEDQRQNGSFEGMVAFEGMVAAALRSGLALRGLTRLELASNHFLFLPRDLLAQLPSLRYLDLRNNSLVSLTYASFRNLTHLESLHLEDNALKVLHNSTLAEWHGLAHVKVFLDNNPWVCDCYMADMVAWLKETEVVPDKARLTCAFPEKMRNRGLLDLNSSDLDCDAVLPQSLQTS
Method: as §1

[5] = test system: black-tailed marmoset 5T4 ectodomain/Fc fusion protein; assay: as above; format: binding; set-up: key: +: binding; −: no binding; +/−: partial binding
black-tailed marmoset 5T4 ectodomain/Fc fusion protein, sequence (as listed by the source): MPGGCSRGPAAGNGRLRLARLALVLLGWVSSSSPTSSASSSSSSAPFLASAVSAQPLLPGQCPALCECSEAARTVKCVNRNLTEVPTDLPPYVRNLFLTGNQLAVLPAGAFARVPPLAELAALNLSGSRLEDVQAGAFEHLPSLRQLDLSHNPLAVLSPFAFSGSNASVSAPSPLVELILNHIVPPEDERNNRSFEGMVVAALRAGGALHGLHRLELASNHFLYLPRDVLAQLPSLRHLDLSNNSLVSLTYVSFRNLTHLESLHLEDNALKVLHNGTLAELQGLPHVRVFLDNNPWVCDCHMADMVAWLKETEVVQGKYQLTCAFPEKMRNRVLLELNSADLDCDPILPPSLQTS
Method: as §1

B1: chimeric A3: chimeric A3 antibody: murine A3 variable regions, human IgG4 heavy chain and human kappa light chain constant regions (antibody, V domains shown)
VH: EVQLVESGGGLVQPKGSLKLSCAASGFTFNTYAMNWVRQAPGKGLEWVARIRSKSNNYATYYADSVKDRFTISRDDSQSMLYLQMNNLKTEDTAMYCCVRQWDYDVRAMNYWGQGTSVTVSS
VL: DIVMTQSHIFMSTSVGDRVSITCKASQDVDTAVAWYQQKPGQSPKLLIYWASTRLTGVPDRFTGSGSGTDFTLTISNVQSEDLADYFCQQYSSYPYTFGGGTKLEIK
Human 5T4 antigen [1]
  KA (1/M): ˜5.4 × 10^9 1/M
  ka (1/Ms): ˜5.4 × 10^4 1/Ms
  kd (1/s): ˜1.0 × 10^−5 1/s
Human 5T4 antigen [2]; first antibody chimeric A1, 19 seconds after injection of second antibody
  Percentage of Second Antibody Bound Following Saturation With First Antibody: 82.1%
Human 5T4 antigen [2]; first antibody chimeric A1, 37.5 seconds after injection of second antibody
  Percentage of Second Antibody Bound Following Saturation With First Antibody: 82.0%
Human 5T4 antigen [2]; first antibody chimeric A1, 75 seconds after injection of second antibody
  Percentage of Second Antibody Bound Following Saturation With First Antibody: 84.5%
Human 5T4 antigen [2]; first antibody chimeric A1, 150 seconds after injection of second antibody
  Percentage of Second Antibody Bound Following Saturation With First Antibody: 87.8%
Human 5T4 antigen [2]; first antibody chimeric A1, 300 seconds after injection of second antibody
  Percentage of Second Antibody Bound Following Saturation With First Antibody: 90.8%
Human 5T4 antigen [2]; first antibody chimeric A1, 600 seconds after injection of second antibody
  Percentage of Second Antibody Bound Following Saturation With First Antibody: 92.8%
Human 5T4 antigen [2]; first antibody chimeric A2, 19 seconds after injection of second antibody
  Percentage of Second Antibody Bound Following Saturation With First Antibody: 92.2%
Human 5T4 antigen [2]; first antibody chimeric A2, 37.5 seconds after injection of second antibody
  Percentage of Second Antibody Bound Following Saturation With First Antibody: 88.6%
Human 5T4 antigen [2]; first antibody chimeric A2, 75 seconds after injection of second antibody
  Percentage of Second Antibody Bound Following Saturation With First Antibody: 89.5%
Human 5T4 antigen [2]; first antibody chimeric A2, 150 seconds after injection of second antibody
  Percentage of Second Antibody Bound Following Saturation With First Antibody: 91.5%
Human 5T4 antigen [2]; first antibody chimeric A2, 300 seconds after injection of second antibody
  Percentage of Second Antibody Bound Following Saturation With First Antibody: 93.4%
Human 5T4 antigen [2]; first antibody chimeric A2, 600 seconds after injection of second antibody
  Percentage of Second Antibody Bound Following Saturation With First Antibody: 94.6%
[3]
  cross-reactivity (binding class): −
[4]
  cross-reactivity (binding class): −
[5]
  cross-reactivity (binding class): −
